B1: PRPH (parent)
chain: RTFGPPPSLSPGAFSYSSSSRFSS
B2: ALDH8A1 (parent)
chain: WSSRSPQERSRVLNQVADLLEQSL

Variants of: B1
Assay: protein stability index of a GFP-peptide fusion (GPS, HEK-293T) (PSI 1-6); higher = more stable
Conditions: c terminus: a fixed tail appended
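Also: lentivirally expressed fusions sorted by FACS into six bins by GFP to DsRed ratio, PSI derived from sequencing read proportions per bin multiplied by bin number.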

| Variant | protein stability index |
| --- | --- |
| RTFGPPPSLSPGAFSYSSSMRFSS [S20M] | 3.05 |
| RTFGPPPSLSPGAFSYSSSNRFSS [S20N] | 3.31 |
| RTFGPPPSLSPGAFSYSSSPRFSS [S20P] | 3.45 |
| RTFGPPPSLSPGAFSYSSSQRFSS [S20Q] | 3.57 |
| RTFGPPPSLSPGAFSYSSSRRFSS [S20R] | 3.41 |
| RTFGPPPSLSPGAFSYSSSTRFSS [S20T] | 2.94 |
| RTFGPPPSLSPGAFSYSSSVRFSS [S20V] | 2.86 |
| RTFGPPPSLSPGAFSYSSSWRFSS [S20W] | 2.09 |
| RTFGPPPSLSPGAFSYSSSYRFSS [S20Y] | 2.74 |
| RTFGPPPSLSPGAFSYSSSSAFSS [R21A] | 2.46 |
| RTFGPPPSLSPGAFSYSSSSCFSS [R21C] | 3.19 |
| RTFGPPPSLSPGAFSYSSSSDFSS [R21D] | 3.3 |
| RTFGPPPSLSPGAFSYSSSSEFSS [R21E] | 3.22 |
| RTFGPPPSLSPGAFSYSSSSFFSS [R21F] | 2.25 |
| RTFGPPPSLSPGAFSYSSSSGFSS [R21G] | 2.85 |
| RTFGPPPSLSPGAFSYSSSSHFSS [R21H] | 3.48 |
| RTFGPPPSLSPGAFSYSSSSIFSS [R21I] | 2.44 |
| RTFGPPPSLSPGAFSYSSSSKFSS [R21K] | 3.5 |
| RTFGPPPSLSPGAFSYSSSSLFSS [R21L] | 2.56 |
| RTFGPPPSLSPGAFSYSSSSMFSS [R21M] | 2.8 |
| RTFGPPPSLSPGAFSYSSSSNFSS [R21N] | 3.03 |
| RTFGPPPSLSPGAFSYSSSSPFSS [R21P] | 3.25 |
| RTFGPPPSLSPGAFSYSSSSQFSS [R21Q] | 3.23 |
| RTFGPPPSLSPGAFSYSSSSSFSS [R21S] | 3.02 |
| RTFGPPPSLSPGAFSYSSSSTFSS [R21T] | 3.18 |
| RTFGPPPSLSPGAFSYSSSSVFSS [R21V] | 3.1 |
| RTFGPPPSLSPGAFSYSSSSWFSS [R21W] | 1.75 |

| Variant | protein stability index |
| --- | --- |
| RTFGPPPSLSPGAFSYSSSSYFSS [R21Y] | 2.08 |
| RTFGPPPSLSPGAFSYSSSSRASS [F22A] | 3.4 |
| RTFGPPPSLSPGAFSYSSSSRCSS [F22C] | 3.82 |
| RTFGPPPSLSPGAFSYSSSSRDSS [F22D] | 3.94 |
| RTFGPPPSLSPGAFSYSSSSRESS [F22E] | 4.03 |
| RTFGPPPSLSPGAFSYSSSSRGSS [F22G] | 4.16 |
| RTFGPPPSLSPGAFSYSSSSRHSS [F22H] | 3.55 |
| RTFGPPPSLSPGAFSYSSSSRISS [F22I] | 3.81 |
| RTFGPPPSLSPGAFSYSSSSRKSS [F22K] | 4.21 |
| RTFGPPPSLSPGAFSYSSSSRLSS [F22L] | 3.72 |
| RTFGPPPSLSPGAFSYSSSSRMSS [F22M] | 3.73 |
| RTFGPPPSLSPGAFSYSSSSRNSS [F22N] | 3.44 |
| RTFGPPPSLSPGAFSYSSSSRPSS [F22P] | 3.27 |
| RTFGPPPSLSPGAFSYSSSSRQSS [F22Q] | 3.78 |
| RTFGPPPSLSPGAFSYSSSSRSSS [F22S] | 4.18 |
| RTFGPPPSLSPGAFSYSSSSRTSS [F22T] | 4.17 |
| RTFGPPPSLSPGAFSYSSSSRVSS [F22V] | 3.8 |
| RTFGPPPSLSPGAFSYSSSSRWSS [F22W] | 2.83 |
| RTFGPPPSLSPGAFSYSSSSRYSS [F22Y] | 3.22 |
| RTFGPPPSLSPGAFSYSSSSRFAS [S23A] | 3.17 |
| RTFGPPPSLSPGAFSYSSSSRFCS [S23C] | 3.02 |
| RTFGPPPSLSPGAFSYSSSSRFDS [S23D] | 2.9 |
| RTFGPPPSLSPGAFSYSSSSRFES [S23E] | 2.79 |
| RTFGPPPSLSPGAFSYSSSSRFFS [S23F] | 3.09 |
| RTFGPPPSLSPGAFSYSSSSRFGS [S23G] | 2.6 |
| RTFGPPPSLSPGAFSYSSSSRFHS [S23H] | 3.02 |
| RTFGPPPSLSPGAFSYSSSSRFIS [S23I] | 2.52 |

| Variant | protein stability index |
| --- | --- |
| RTFGPPPSLSPGAFSYSSSSRFKS [S23K] | 3.48 |
| RTFGPPPSLSPGAFSYSSSSRFLS [S23L] | 2.93 |
| RTFGPPPSLSPGAFSYSSSSRFMS [S23M] | 2.88 |
| RTFGPPPSLSPGAFSYSSSSRFNS [S23N] | 3.36 |
| RTFGPPPSLSPGAFSYSSSSRFPS [S23P] | 3.59 |
| RTFGPPPSLSPGAFSYSSSSRFQS [S23Q] | 3.47 |
| RTFGPPPSLSPGAFSYSSSSRFRS [S23R] | 3.52 |
| RTFGPPPSLSPGAFSYSSSSRFTS [S23T] | 3.23 |
| RTFGPPPSLSPGAFSYSSSSRFVS [S23V] | 2.85 |
| RTFGPPPSLSPGAFSYSSSSRFYS [S23Y] | 2.66 |
| RTFGPPPSLSPGAFSYSSSSRFSC [S24C] | 2.83 |
| RTFGPPPSLSPGAFSYSSSSRFSD [S24D] | 3.19 |
| RTFGPPPSLSPGAFSYSSSSRFSE [S24E] | 3.38 |
| RTFGPPPSLSPGAFSYSSSSRFSF [S24F] | 1.96 |
| RTFGPPPSLSPGAFSYSSSSRFSH [S24H] | 3.55 |
| RTFGPPPSLSPGAFSYSSSSRFSI [S24I] | 3.01 |
| RTFGPPPSLSPGAFSYSSSSRFSK [S24K] | 3.89 |
| RTFGPPPSLSPGAFSYSSSSRFSL [S24L] | 2.27 |
| RTFGPPPSLSPGAFSYSSSSRFSM [S24M] | 2.55 |
| RTFGPPPSLSPGAFSYSSSSRFSN [S24N] | 3.44 |
| RTFGPPPSLSPGAFSYSSSSRFSQ [S24Q] | 3.31 |
| RTFGPPPSLSPGAFSYSSSSRFSR [S24R] | 3.85 |
| RTFGPPPSLSPGAFSYSSSSRFST [S24T] | 3.23 |
| RTFGPPPSLSPGAFSYSSSSRFSV [S24V] | 2.3 |
| RTFGPPPSLSPGAFSYSSSSRFSW [S24W] | 2.82 |
| RTFGPPPSLSPGAFSYSSSSRFSY [S24Y] | 2.46 |

Variants of: B2
Assay: as above
Conditions: c terminus: a fixed tail appended

| Variant | protein stability index |
| --- | --- |
| ASSRSPQERSRVLNQVADLLEQSL [W1A] | 3.21 |
| CSSRSPQERSRVLNQVADLLEQSL [W1C] | 2.78 |
| DSSRSPQERSRVLNQVADLLEQSL [W1D] | 3.69 |
| ESSRSPQERSRVLNQVADLLEQSL [W1E] | 3.54 |
| FSSRSPQERSRVLNQVADLLEQSL [W1F] | 2.67 |
| GSSRSPQERSRVLNQVADLLEQSL [W1G] | 3.44 |
| HSSRSPQERSRVLNQVADLLEQSL [W1H] | 3.56 |
| ISSRSPQERSRVLNQVADLLEQSL [W1I] | 2.69 |
| KSSRSPQERSRVLNQVADLLEQSL [W1K] | 3.18 |
| LSSRSPQERSRVLNQVADLLEQSL [W1L] | 2.91 |
| MSSRSPQERSRVLNQVADLLEQSL [W1M] | 3.06 |
| NSSRSPQERSRVLNQVADLLEQSL [W1N] | 3.61 |
| PSSRSPQERSRVLNQVADLLEQSL [W1P] | 3.02 |
| QSSRSPQERSRVLNQVADLLEQSL [W1Q] | 3.28 |

— the supplement of paper PMC10567573
